Our source for the IC50 values is patent US5919901, “Neuropeptide Y receptor Y5 and nucleic acid sequences” (Bayer Corporation, dated 1999).

Ends that are not written are not given here.

The target in experiment [1] is T1, rat NPY Y5 receptor, clone Y217.24.13.6B (rat).
T1 chain: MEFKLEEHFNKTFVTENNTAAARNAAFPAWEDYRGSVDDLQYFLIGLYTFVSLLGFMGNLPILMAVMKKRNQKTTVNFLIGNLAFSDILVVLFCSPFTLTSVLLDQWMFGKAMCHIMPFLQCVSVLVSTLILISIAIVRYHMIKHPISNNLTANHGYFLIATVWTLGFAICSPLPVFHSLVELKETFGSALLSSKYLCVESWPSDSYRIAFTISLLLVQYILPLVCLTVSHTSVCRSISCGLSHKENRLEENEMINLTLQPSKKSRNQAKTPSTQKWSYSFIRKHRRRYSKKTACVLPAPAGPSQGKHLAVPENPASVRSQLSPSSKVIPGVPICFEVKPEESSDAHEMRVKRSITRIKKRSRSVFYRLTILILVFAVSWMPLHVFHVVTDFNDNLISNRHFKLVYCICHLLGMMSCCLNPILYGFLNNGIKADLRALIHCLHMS
Kind of experiment: competition with [125I]PYY, membranes of transfected COS-7 cells. The text has this:
(§1) All other peptides were purchased from either Peninsula (Belmont, Calif.) or Bachem (Torrance, Calif.).

The target of experiment [2] is T1, rat NPY Y5 receptor, clone Y217.24.13.6B. Kind of experiment: competition with [125I]PYY, membranes of transfected COS-7 cells; second individual value in brackets.
From the text: as §1

For experiment [3] the target is unchanged. In words: competition with [125I]PYY, membranes of transfected COS-7 cells; first individual value in brackets.
From the text: as §1

Experiment [4] has as its target T2, rat NPY Y5 receptor, clone Y555 (rat).
T2 chain: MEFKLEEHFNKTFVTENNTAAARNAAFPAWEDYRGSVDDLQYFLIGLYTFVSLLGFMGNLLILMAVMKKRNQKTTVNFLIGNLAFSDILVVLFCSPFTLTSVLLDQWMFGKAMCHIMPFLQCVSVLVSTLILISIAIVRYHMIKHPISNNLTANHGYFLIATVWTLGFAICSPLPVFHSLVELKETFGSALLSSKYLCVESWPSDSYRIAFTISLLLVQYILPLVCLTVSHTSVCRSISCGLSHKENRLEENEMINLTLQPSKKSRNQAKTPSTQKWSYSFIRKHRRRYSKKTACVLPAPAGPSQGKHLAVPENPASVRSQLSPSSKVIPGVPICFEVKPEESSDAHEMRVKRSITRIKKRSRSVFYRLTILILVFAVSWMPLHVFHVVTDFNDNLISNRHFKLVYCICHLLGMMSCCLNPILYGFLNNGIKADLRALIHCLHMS
In words: competition with [125I]PYY, membranes of transfected COS-7 cells; second individual value in brackets.
From the text: as §1

Experiment [5] has as its target T3, rat NPY Y5 receptor, clone Y861 (rat).
T3 chain: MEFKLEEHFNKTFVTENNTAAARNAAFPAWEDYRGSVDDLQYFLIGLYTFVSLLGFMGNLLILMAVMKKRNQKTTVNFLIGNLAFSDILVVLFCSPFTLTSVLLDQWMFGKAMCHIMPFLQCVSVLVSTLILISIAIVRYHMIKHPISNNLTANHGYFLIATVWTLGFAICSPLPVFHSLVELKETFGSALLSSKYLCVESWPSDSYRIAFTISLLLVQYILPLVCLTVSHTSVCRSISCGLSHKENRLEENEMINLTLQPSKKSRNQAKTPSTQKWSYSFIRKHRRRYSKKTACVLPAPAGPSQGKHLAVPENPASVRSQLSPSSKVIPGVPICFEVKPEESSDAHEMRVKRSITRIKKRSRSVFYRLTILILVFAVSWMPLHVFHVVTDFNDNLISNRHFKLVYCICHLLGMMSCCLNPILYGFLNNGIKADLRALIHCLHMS
Kind of experiment: competition with [125I]PYY, membranes of transfected COS-7 cells.
From the text: as §1

The target of experiment [6] is T2, rat NPY Y5 receptor, clone Y555. In words: competition with [125I]PYY, membranes of transfected COS-7 cells; first individual value in brackets.
From the text: as §1

Experiment [7] shares this target. Kind of experiment: competition with [125I]PYY, membranes of transfected COS-7 cells; average of two experiments.
From the text: as §1

One may read the IC50 as the point on the concentration scale where inhibition reaches its midpoint. Read a high IC50 as a need for much substance. Take SALRHYINLITRQRY (ends and bridges not checked) [r/h(22-36)NPY]: the IC50 in experiment [1] is over 1000 nM. In experiment [1], HYINLITRQRY (ends and bridges not checked) [r/h(26-36)NPY] came in with an IC50 of over 1000 nM. For the molecule ARYYSALRHYINLITRQRY (ends and bridges not checked) [p(18-36)NPY], the half-inhibitory concentration (IC50) was 107 nM in experiment [2] and 147 nM in experiment [3]. Take SPEELSRYYASLRHYLNLVTRQRY [r(13-36)PYY]: the half-maximal inhibitory concentration (IC50) turned out to be 54 nM in experiment [4]; 73 nM in experiment [5]; 13.2 nM in experiment [1]; 9.6 nM in experiment [6]; 32 nM in experiment [7]. With YYSALRHYINLITRQRY (ends and bridges not checked) [r/h(20-36)NPY], the IC50 in experiment [2] is 332 nM; in experiment [3], 387 nM.

In experiment [5], APLEPMYPGDYATHEQRAQYETQLRRYINTLTRPRY [rPP] displayed a 50% inhibitory concentration (IC50) of 325 nM. Molecule APLEPVYPGDNATPEQMAQYAADLRRYINMLTRPRY [hPP] yielded an IC50 in experiment [5] of 4.9 nM.
